Assay results reported in patent US20080274950A1 (BABRAHAM INSTITUTE, published 2008).
Blank lines part the entries; values can stand above or below the binder they belong to.

Key:
[1] = target: T1, wild type full length chicken N-cadherin expressed on stably transfected K562 cells (chicken, UniProt P10288 165-912); test: adhesion of K562 transfectants to coated N-cadherin Fc
T1 construct: whole, on cells; also called K562 transfectants (Wt); wild type cells
T1 sequence (looked up): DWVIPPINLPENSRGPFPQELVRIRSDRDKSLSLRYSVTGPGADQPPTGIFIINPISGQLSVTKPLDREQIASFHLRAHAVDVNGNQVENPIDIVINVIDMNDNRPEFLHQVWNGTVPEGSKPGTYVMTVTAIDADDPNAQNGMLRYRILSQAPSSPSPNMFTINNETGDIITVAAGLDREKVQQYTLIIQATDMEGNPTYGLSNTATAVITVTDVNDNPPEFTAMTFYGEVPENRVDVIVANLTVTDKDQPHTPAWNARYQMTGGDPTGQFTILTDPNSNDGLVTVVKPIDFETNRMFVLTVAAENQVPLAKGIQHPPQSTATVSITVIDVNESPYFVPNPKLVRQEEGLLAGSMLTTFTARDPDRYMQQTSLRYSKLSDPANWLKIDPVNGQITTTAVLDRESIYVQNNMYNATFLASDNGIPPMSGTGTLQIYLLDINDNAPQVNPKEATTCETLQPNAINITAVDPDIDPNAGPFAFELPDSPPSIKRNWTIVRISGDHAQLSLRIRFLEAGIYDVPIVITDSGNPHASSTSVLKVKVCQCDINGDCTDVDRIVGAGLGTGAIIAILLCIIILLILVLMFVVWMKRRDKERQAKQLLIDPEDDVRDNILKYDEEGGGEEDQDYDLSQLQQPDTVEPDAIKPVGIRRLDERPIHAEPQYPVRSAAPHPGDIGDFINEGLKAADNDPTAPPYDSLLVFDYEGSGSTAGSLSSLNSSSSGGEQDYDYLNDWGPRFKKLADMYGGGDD
Summary of the method: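 K562 (or L) cells transfected with wild-type or mutant N-cadherin settled 45 min at 37 °C onto N-cadherin Fc coated at 1 µg/ml. After non-adherent cells were washed off, bound cells were quantified by acid phosphatase activity. Values are % cells adhering ± SEM, quadruplicate.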

[2] = target: T2, mouse N-cadherin on L cells after removal of the prodomain with trypsin (mouse, UniProt P15116 160-906); test: adhesion of trypsin-treated L cell transfectants to coated N-cadherin Fc
T2 construct: whole, on cells; Removal of the prodomain was almost complete by western blot; also called L cells after treatment; trypsin-treated L cell transfectants
T2 sequence (looked up): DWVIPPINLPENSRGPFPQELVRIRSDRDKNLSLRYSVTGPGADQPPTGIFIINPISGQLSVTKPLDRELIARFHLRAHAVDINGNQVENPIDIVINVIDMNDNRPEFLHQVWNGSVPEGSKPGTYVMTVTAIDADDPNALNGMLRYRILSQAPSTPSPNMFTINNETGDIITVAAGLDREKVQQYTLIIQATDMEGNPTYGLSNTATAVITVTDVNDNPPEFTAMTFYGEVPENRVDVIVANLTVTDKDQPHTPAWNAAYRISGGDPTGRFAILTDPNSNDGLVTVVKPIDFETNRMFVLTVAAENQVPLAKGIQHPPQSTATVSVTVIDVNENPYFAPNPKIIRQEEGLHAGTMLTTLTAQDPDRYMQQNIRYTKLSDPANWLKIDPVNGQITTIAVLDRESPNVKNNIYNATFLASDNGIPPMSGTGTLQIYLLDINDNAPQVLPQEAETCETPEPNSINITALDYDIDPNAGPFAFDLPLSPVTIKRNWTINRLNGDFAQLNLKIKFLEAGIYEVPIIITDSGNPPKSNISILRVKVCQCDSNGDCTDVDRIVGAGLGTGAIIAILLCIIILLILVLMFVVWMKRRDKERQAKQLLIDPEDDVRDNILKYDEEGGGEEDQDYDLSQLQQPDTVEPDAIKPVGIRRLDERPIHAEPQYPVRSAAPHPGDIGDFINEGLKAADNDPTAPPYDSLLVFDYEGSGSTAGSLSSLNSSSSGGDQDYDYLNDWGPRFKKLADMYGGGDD
Protocol: Adhesion tests were conducted substantially as described in Example 1. Briefly, K562 Cells or L cells transfected with wild type or mutant N-cadherin were allowed to settle for 45 minutes at 37° C. onto N-cadherin Fc fusion proteins coated at 1 μg/ml to a 96 well plate. Non-adherent cells were then washed off and residual adherent cells were quantitated by measuring acid phosphatase activity. Assays were conducted in quadruplicate and results are expressed as % cells adhering +/−SEM.
L cells expressing mouse N-cadherin with an uncleaved prodomain (see Koch et al., 2004) were obtained from Dr Weisong Shan (Montreal Neurological Institute). The normal furin cleavage site, RQKR, had been replaced with a Factor Xa site, IEGR, to give the correct N-terminus after digestion. […] L cells suspended in HBSS containing 0.1% BSA were treated with 0.01% trypsin (Sigma, Type XI) in the presence of 2 mM Ca²⁺ for 10 minutes at 37° C. and the digestion was then quenched with soyabean trypsin inhibitor, 0.5 mg per ml (Sigma, Type I-S). Cells were then washed and tested for adhesion to N-cadherin Fc-fusion protein. To check for complete removal of the prodomain, the cells were lysed in SDS sample buffer and the cadherin analysed by SDS PAGE under reducing conditions on a 4-12% gradient gel. […]

B1: chicken N-cadherin-Fc fusion protein with the mutation D134A, dimeric (Fc fusion, UniProt P10288 165-728, looked up)
chain: DWVIPPINLPENSRGPFPQELVRIRSDRDKSLSLRYSVTGPGADQPPTGIFIINPISGQLSVTKPLDREQIASFHLRAHAVDVNGNQVENPIDIVINVIDMNDNRPEFLHQVWNGTVPEGSKPGTYVMTVTAIAADDPNAQNGMLRYRILSQAPSSPSPNMFTINNETGDIITVAAGLDREKVQQYTLIIQATDMEGNPTYGLSNTATAVITVTDVNDNPPEFTAMTFYGEVPENRVDVIVANLTVTDKDQPHTPAWNARYQMTGGDPTGQFTILTDPNSNDGLVTVVKPIDFETNRMFVLTVAAENQVPLAKGIQHPPQSTATVSITVIDVNESPYFVPNPKLVRQEEGLLAGSMLTTFTARDPDRYMQQTSLRYSKLSDPANWLKIDPVNGQITTTAVLDRESIYVQNNMYNATFLASDNGIPPMSGTGTLQIYLLDINDNAPQVNPKEATTCETLQPNAINITAVDPDIDPNAGPFAFELPDSPPSIKRNWTIVRISGDHAQLSLRIRFLEAGIYDVPIVITDSGNPHASSTSVLKVKVCQCDINGDCTDVDRIVGAGLGT
notes: extracellular domain; also called D134A mutant; N-cadherin Fc mutant D134A; not shown: hinge region, CH2 and CH3 domains of human IgG1 heavy chain (vector pIgSig)
- binding result [1]: no binding (tested: Fc fusion protein coated at 1 µg/ml)

- binding result [2]: binds
B2: wild type chicken N-cadherin-Fc fusion protein, dimeric (linked by disulphide bonds at the Ig hinge region) (Fc fusion, UniProt P10288 165-729, looked up)
chain: DWVIPPINLPENSRGPFPQELVRIRSDRDKSLSLRYSVTGPGADQPPTGIFIINPISGQLSVTKPLDREQIASFHLRAHAVDVNGNQVENPIDIVINVIDMNDNRPEFLHQVWNGTVPEGSKPGTYVMTVTAIDADDPNAQNGMLRYRILSQAPSSPSPNMFTINNETGDIITVAAGLDREKVQQYTLIIQATDMEGNPTYGLSNTATAVITVTDVNDNPPEFTAMTFYGEVPENRVDVIVANLTVTDKDQPHTPAWNARYQMTGGDPTGQFTILTDPNSNDGLVTVVKPIDFETNRMFVLTVAAENQVPLAKGIQHPPQSTATVSITVIDVNESPYFVPNPKLVRQEEGLLAGSMLTTFTARDPDRYMQQTSLRYSKLSDPANWLKIDPVNGQITTTAVLDRESIYVQNNMYNATFLASDNGIPPMSGTGTLQIYLLDINDNAPQVNPKEATTCETLQPNAINITAVDPDIDPNAGPFAFELPDSPPSIKRNWTIVRISGDHAQLSLRIRFLEAGIYDVPIVITDSGNPHASSTSVLKVKVCQCDINGDCTDVDRIVGAGLGTG
notes: extracellular domain; also called dimeric N-cadherin-Fc; wild type N-cadherin; not shown: hinge region, CH2 and CH3 domains of human IgG1 heavy chain (vector pIgSig)
